Experimental data from the supplement of paper PMC10724198.
± gives the standard deviation of the averaged measurements.

system: Saccharomyces cerevisiae; assay: protein stability index of tFT-peptide fusion (C-terminal peptide) (PSI (0-1 scale)); higher = more stable (slower turnover); conditions: genetic background: wild type; temperature: 30 C
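Note: PSI is a weighted mean of sequencing reads over stability bins, variants kept only with over 10 reads, mCherry proximal and sfGFP distal, peptide attached via GGGS linker.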

Row | Sequence | protein stability index
1 | VSPLRGSRAPFP | 0.744 ± 0.068
2 | PCPLPVLDASQF | 0.7158 ± 0.0053
3 | DDGQWVGFCGWT | 0.749 ± 0.039
4 | VFSPVLVCKMGE | 0.698 ± 0.024
5 | ICAPSPSPAFTF | 0.689 ± 0.0086
6 | RWGVRGAIHSDL | 0.6841 ± 0.0065
7 | PPLRPPAPEPSP | 0.659 ± 0.0092
8 | GFGWYVPESWSS | 0.616 ± 0.043
9 | VLGSYFNGIWLF | 0.534 ± 0.019
10 | TLSYSPPCSPRH | 0.742 ± 0.03
11 | TKKRKRKKKGNK | 0.715 ± 0.05
12 | LIKVGRRREGTG | 0.691 ± 0.059
13 | RPLALHSYPCSP | 0.6771 ± 0.00072
14 | TPVVSVFFLPHY | 0.673 ± 0.0095
15 | DLYVADNCPNSP | 0.662 ± 0.1
16 | GEIGVRGYQAEE | 0.739 ± 0.029
17 | GGWSHMHLGLDG | 0.665 ± 0.024
18 | LGVGFFLGFRTG | 0.6508 ± 0.0048
19 | FDSGLTTHQRDA | 0.686 ± 0.029
20 | FPSPPPPAPLPP | 0.763 ± 0.039
21 | PHPRRSTKTQRR | 0.7878 ± 0.0045
22 | SPASPPLPAPPP | 0.68 ± 0.032
23 | LGPDSCRLPLAQ | 0.746 ± 0.067
24 | PCAPHPPPWVVL | 0.6058 ± 0.0056
25 | TVSRNKKKKQIQ | 0.613 ± 0.038
26 | EVERKNKESGKI | 0.717 ± 0.011

Row | Sequence | protein stability index
27 | GQSSVGCYNYRR | 0.676 ± 0.036
28 | ATLVRTTWSCHG | 0.669 ± 0.014
29 | SLSPPLLPPSPP | 0.643 ± 0.018
30 | LPLPLLLFPPPH | 0.677 ± 0.041
31 | QCLFPVAYYLTP | 0.657 ± 0.0097
32 | GLKWTGLEWHFL | 0.693 ± 0.041
33 | WHWDGVGTLVIW | 0.605 ± 0.14
34 | PFFSPLPPSPPP | 0.767 ± 0.11
35 | GVSAGGAGLGGS | 0.773 ± 0.0031
36 | TNMTRWRIRVRD | 0.676 ± 0.053
37 | GRSGWAWFTCRC | 0.67 ± 0.059
38 | PSPLSLIPSSRP | 0.663 ± 0.095
39 | PLPPRPPPLPLP | 0.716 ± 0.013
40 | TMSPPSTSGGMG | 0.6855 ± 0.0042
41 | VKASPSDGGIVP | 0.725 ± 0.035
42 | AVEGVSEVSLSG | 0.656 ± 0.019
43 | PFLAWTILPLTY | 0.701 ± 0.0074
44 | AGGGLGVVLGWW | 0.7054 ± 0.0038
45 | LWAGGVAVAVSR | 0.638 ± 0.045
46 | PPPTPKITPMSI | 0.6871 ± 0.0018
47 | VLTSRCGLLFVL | 0.62 ± 0.044
48 | SRSPRSRSRHES | 0.69769 ± 0.00032
49 | RATLGVSGRCWV | 0.6802 ± 0.001
50 | WRCYCFLGLDEG | 0.653 ± 0.029
51 | AEIINRVKSRSK | 0.731 ± 0.074
52 | FPVPPFFLSGHL | 0.651 ± 0.11

Row | Sequence | protein stability index
53 | AHRLTKVIILFG | 0.67 ± 0.1
54 | GDPADGACGPTR | 0.8 ± 0.062
55 | RASTRGIMISKS | 0.706 ± 0.034
56 | VGGRVESLGVGD | 0.584 ± 0.017
57 | GVGLVLLGVVSG | 0.513 ± 0.025
58 | FLISFCFVGLVL | 0.55 ± 0.014
59 | ATSSNFGVWVHV | 0.69 ± 0.048
60 | PLPSLSPLPPPL | 0.701 ± 0.017
61 | KEKSRNIKKRRK | 0.705 ± 0.079
62 | CLVGWAVAVLGD | 0.458 ± 0.068
63 | PLPSVLFCLTRW | 0.665 ± 0.02
64 | PTMGRRPGRGGA | 0.6987 ± 0.00073
65 | GLGEDVGLGLGW | 0.669 ± 0.051
66 | RGRGSLPGFKSL | 0.654 ± 0.058
67 | VGVIREGKENGN | 0.656 ± 0.023
68 | PLPPRPHPPPPY | 0.695 ± 0.037
69 | RMNSCVLLDGFA | 0.687 ± 0.03
70 | PPPPPLPALPLL | 0.84 ± 0.081
71 | LFLSAFFFRFFD | 0.629 ± 0.045
72 | MRIMERWVMGGG | 0.795 ± 0.16
73 | PPSSYGCGRQMP | 0.645 ± 0.038
74 | PPLPFPSLPTPP | 0.696 ± 0.042
75 | RKGDRAQRWRDL | 0.655 ± 0.12
76 | VLSLPPLFRTSA | 0.636 ± 0.0086
77 | RSTGFHRVSCGI | 0.72 ± 0.06
78 | LSDFSLPTFLLL | 0.72 ± 0.065

Row | Sequence | protein stability index
79 | LVFRPVPVIFGL | 0.635 ± 0.017
80 | SSTGRGRGCQEM | 0.684 ± 0.0086
81 | GRYRNDVAVLNF | 0.683 ± 0.087
82 | PPAPSPPVPPQL | 0.727 ± 0.026
83 | LPTATSFNALNS | 0.714 ± 0.072
84 | RRMSQQCLPRQR | 0.739 ± 0.047
85 | VWVVGADEDAVR | 0.698 ± 0.03
86 | VLRSSFYLSFPR | 0.611 ± 0.013
87 | ARGGTAVYKAAG | 0.668 ± 0.02
88 | PPFVLLVPTSLS | 0.68 ± 0.018
89 | LAFPFSPLAPQI | 0.691 ± 0.077
90 | SSPPSPPPLTLY | 0.687 ± 0.02
91 | DSGVGLARSARG | 0.678 ± 0.018
92 | AVSRSLTGVRFL | 0.697 ± 0.025
93 | PSPPPTPPPPTP | 0.793 ± 0.096
94 | WVTQHAMEVGRI | 0.712 ± 0.084
95 | GGGGGMEPGCGP | 0.682 ± 0.043
96 | SGVVLVRCEGRR | 0.754 ± 0.15
97 | RLGLSIASAPCL | 0.693 ± 0.062
98 | GGGWGRVALGQG | 0.612 ± 0.015
99 | SGRYNIKPEERE | 0.634 ± 0.022
100 | SPAAGGRVGVRR | 0.715 ± 0.021
101 | VLSFFQCSWVLL | 0.574 ± 0.057
102 | SLVVSPRQLLPR | 0.704 ± 0.029
103 | PGCGRKSAFGLT | 0.699 ± 0.037
104 | DQSYPTPPSRID | 0.721 ± 0.01

Row | Sequence | protein stability index
105 | GHGFPSLPLILS | 0.57 ± 0.076
106 | VGICWLTEPVLY | 0.731 ± 0.089
107 | VLLQDLSYLIGQ | 0.707 ± 0.065
108 | TLVPAYRCEWCA | 0.736 ± 0.046
109 | PAPSPPPPRPLP | 0.716 ± 0.1
110 | RGPFSGKCEPSM | 0.663 ± 0.049
111 | SVPYALPTTPPR | 0.676 ± 0.045
112 | YCRVRYKKSVLR | 0.694 ± 0.015
113 | PPPSSPTPPHSR | 0.738 ± 0.082
114 | VGRVNRNERCQR | 0.587 ± 0.022
115 | RGGVGRLEGCRG | 0.684 ± 0.066
116 | GAPSHVTPLPQI | 0.686 ± 0.047
117 | PSPHTPPHTFLL | 0.755 ± 0.0022
118 | DHKKNKIKKKKE | 0.685 ± 0.097
119 | IMKKKKNKARDI | 0.75 ± 0.055
120 | VCWVRGGGVLDG | 0.711 ± 0.053
121 | AVKMLGRGLVLV | 0.624 ± 0.032
122 | HLVPYVVKHLVP | 0.6785 ± 0.0062
123 | RLCPWNLSDADL | 0.71 ± 0.0091
124 | LYICNYFKFKKR | 0.7096 ± 0.0069
125 | VPALLPLLPSPP | 0.712 ± 0.03
126 | REVRRNINKRRE | 0.67 ± 0.11
127 | GGFGGAWRGWAP | 0.692 ± 0.016
128 | MKRIRKTKIKAR | 0.624 ± 0.074
129 | PPPPLPHPALPP | 0.675 ± 0.04
130 | LFPAGSSLCGAI | 0.753 ± 0.061

Row | Sequence | protein stability index
131 | WAGGANGEWGEW | 0.8097 ± 0.0021
132 | PPSFLLVCPRPP | 0.6897 ± 0.0068
133 | EVVFVARSGSGV | 0.654 ± 0.008
134 | VRVCRSVGAGMT | 0.649 ± 0.034
135 | FSFFQFSASFFL | 0.699 ± 0.039
136 | SFTYVFFSLSRR | 0.663 ± 0.019
137 | RAVSGSLSFLLR | 0.721 ± 0.014
138 | LVRGGHRLSFRL | 0.732 ± 0.015
139 | GGGRAEPLEPGV | 0.648 ± 0.07
140 | FSFARFFSWSFS | 0.694 ± 0.13
141 | IDLWGNGRCVEL | 0.701 ± 0.048
142 | GIGRGLGGLKSG | 0.617 ± 0.026
143 | RPRPPLASPSPP | 0.7005 ± 0.0013
144 | SLASPPPLHCTL | 0.659 ± 0.034
145 | NKYEMRDDTMNI | 0.681 ± 0.056
146 | VRRWCQFLGCCG | 0.682 ± 0.0081
147 | LILFLTTSSPLV | 0.608 ± 0.017
148 | GISGRPDGGRGG | 0.658 ± 0.0071
149 | PPPQLRPLPQSL | 0.704 ± 0.018
150 | LCACRMVGFRGG | 0.538 ± 0.045
151 | WLLGLCLFGFHR | 0.577 ± 0.013
152 | HRTSVRIPIPPI | 0.683 ± 0.012
153 | SWVVSLGFAIGL | 0.693 ± 0.055
154 | NICLPLAHRTPG | 0.655 ± 0.017
155 | PPPISPRPPRRA | 0.708 ± 0.0094
156 | PLPPPLPASSPP | 0.681 ± 0.045

Row | Sequence | protein stability index
157 | GSLCAVWWCWRG | 0.6372 ± 0.0052
158 | FPVARGRHWLSR | 0.732 ± 0.12
159 | GPSPFHPPPPER | 0.554 ± 0.0094
160 | GVVRTSWGEALR | 0.7065 ± 0.0061
161 | AGMIRKGQYRGG | 0.68 ± 0.054
162 | GPSHPPHLPPPV | 0.6855 ± 0.001
163 | PLSCFIPPVSSW | 0.666 ± 0.027
164 | LGNFSLSARSYM | 0.727 ± 0.028
165 | VKKSTPIKKPQT | 0.651 ± 0.062
166 | PPPPPPTPPSLS | 0.7449 ± 0.001
167 | LLPPVLPPTLPP | 0.633 ± 0.0075
168 | KFWRCVVVGYGL | 0.641 ± 0.099
169 | GTLARFLTHFNP | 0.666 ± 0.048
170 | YIGGMRSHYASP | 0.734 ± 0.12
171 | VPFPHTHPLLTP | 0.757 ± 0.054
172 | DLEDPAETPNIF | 0.72 ± 0.033
173 | QYGVSIRRDSRP | 0.642 ± 0.035
174 | RGGNVDSRKMNR | 0.722 ± 0.018
175 | IPPCRSFSYIAT | 0.68 ± 0.048
176 | NGQVAGVGNVAW | 0.678 ± 0.015
177 | LSPLHSPCLPCP | 0.679 ± 0.039
178 | VVGGAWTEAGGG | 0.632 ± 0.035
179 | GGGWGGEAVRVW | 0.65 ± 0.055
180 | KLKTTEKTNPRE | 0.805 ± 0.14
181 | HPAALTPVPALH | 0.661 ± 0.036
182 | LPSLASPRLIPS | 0.609 ± 0.0066

Row | Sequence | protein stability index
183 | VVEKKKKKKNNK | 0.73 ± 0.041
184 | LAPLYFSPFPFP | 0.689 ± 0.041
185 | GWLGGGGVVWWG | 0.718 ± 0.017
186 | LCWGGRCGSGPG | 0.72 ± 0.051
187 | TAPRERFGKDPR | 0.649 ± 0.056
188 | HTLQDNHRLPRA | 0.6058 ± 0.0029
189 | ESAARGWSSGVG | 0.726 ± 0.079
190 | TSNGSGLMFQSQ | 0.62 ± 0.019
191 | VTCGVGQHAAIA | 0.731 ± 0.053
192 | HRWSRGIDATGV | 0.665 ± 0.083
193 | TPPPPLSCPPPS | 0.487 ± 0.035
194 | CRQCKGTDGDDQ | 0.673 ± 0.04
195 | SPFLPLHRPRML | 0.653 ± 0.018
196 | LISGGLSWGDCW | 0.743 ± 0.0099
197 | WWRGSVWHREVA | 0.701 ± 0.0088
198 | AAPSTSPGPRPA | 0.652 ± 0.01
199 | RRNGVVGRLGWV | 0.7 ± 0.051
200 | GSAHSFTLLVLP | 0.742 ± 0.043
201 | PPPAPPPPLPPR | 0.688 ± 0.028
202 | IRVGVESGSRGR | 0.728 ± 0.22
